To fix the notation:
B1: hu3G8VH-24/hu3G8VL-1 (antibody)
VH: QVTLRESGPALVKPTQTLTLTCTFSGFSLSTSGVGVGWIRQPPGKALEWLAHIWWDDDKRYSPSLKSRLTISKDTSKNQVVLTMTNMDPVDTATYYCAAINPAYFAYWGQGTLVTVSS
light: DIVMTQSPDSLAVSLGERATINCKASQSVDFDGDSFMNWYQQKPGQPPKLLIYTTSNLESGVPDRFSGSGSGTDFTLTISSLQAEDVAVYYCQQSNEDPYTFGQGTKLEIKRTVAAPSVFIFPPSDEQLKSGTASVVCLLNNFYPREAKVQWKVDNALQSGNSQESVTEQDSKDSTYSLSSTLTLSKADYEKHKVYACEVTHQGLSSPVTKSFNRGEC
notes: VH fused to human Cγ1 constant region
B2: hu3G8VH-27/hu3G8VL-1 (antibody)
VH: QVTLRESGPALVKPTQTLTLTCTFSGFSLSTSGVGVGWIRQPPGKALEWLAHIWWDDDKRYSPSLKSRLTISKDTSKNQVVLTMTNMDPVDTATYYCAKINPAYFDYWGQGTLVTVSS
light: DIVMTQSPDSLAVSLGERATINCKASQSVDFDGDSFMNWYQQKPGQPPKLLIYTTSNLESGVPDRFSGSGSGTDFTLTISSLQAEDVAVYYCQQSNEDPYTFGQGTKLEIKRTVAAPSVFIFPPSDEQLKSGTASVVCLLNNFYPREAKVQWKVDNALQSGNSQESVTEQDSKDSTYSLSSTLTLSKADYEKHKVYACEVTHQGLSSPVTKSFNRGEC
notes: as for B1
B3: hu3G8VH-25/hu3G8VL-1 (antibody)
VH: QVTLRESGPALVKPTQTLTLTCTFSGFSLSTSGVGVGWIRQPPGKALEWLAHIWWDDDKRYSPSLKSRLTISKDTSKNQVVLTMTNMDPVDTATYYCAHINPAYFAYWGQGTLVTVSS
light: DIVMTQSPDSLAVSLGERATINCKASQSVDFDGDSFMNWYQQKPGQPPKLLIYTTSNLESGVPDRFSGSGSGTDFTLTISSLQAEDVAVYYCQQSNEDPYTFGQGTKLEIKRTVAAPSVFIFPPSDEQLKSGTASVVCLLNNFYPREAKVQWKVDNALQSGNSQESVTEQDSKDSTYSLSSTLTLSKADYEKHKVYACEVTHQGLSSPVTKSFNRGEC
notes: as for B1
B4: hu3G8VH-28/hu3G8VL-1 (antibody)
VH: QVTLRESGPALVKPTQTLTLTCTFSGFSLSTSGVGVGWIRQPPGKALEWLAHIWWDDDKRYSPSLKSRLTISKDTSKNQVVLTMTNMDPVDTATYYCAAINPAYFDYWGQGTLVTVSS
light: DIVMTQSPDSLAVSLGERATINCKASQSVDFDGDSFMNWYQQKPGQPPKLLIYTTSNLESGVPDRFSGSGSGTDFTLTISSLQAEDVAVYYCQQSNEDPYTFGQGTKLEIKRTVAAPSVFIFPPSDEQLKSGTASVVCLLNNFYPREAKVQWKVDNALQSGNSQESVTEQDSKDSTYSLSSTLTLSKADYEKHKVYACEVTHQGLSSPVTKSFNRGEC
notes: as for B1
B5: hu3G8VH-30/hu3G8VL-1 (antibody)
VH: QVTLRESGPALVKPTQTLTLTCTFSGFSLSTSGVGVGWIRQPPGKALEWLAHIWWDDDKRYSPSLKSRLTISKDTSKNQVVLTMTNMDPVDTATYYCAQINPAYFDYWGQGTLVTVSS
light: DIVMTQSPDSLAVSLGERATINCKASQSVDFDGDSFMNWYQQKPGQPPKLLIYTTSNLESGVPDRFSGSGSGTDFTLTISSLQAEDVAVYYCQQSNEDPYTFGQGTKLEIKRTVAAPSVFIFPPSDEQLKSGTASVVCLLNNFYPREAKVQWKVDNALQSGNSQESVTEQDSKDSTYSLSSTLTLSKADYEKHKVYACEVTHQGLSSPVTKSFNRGEC
notes: as for B1
B6: hu3G8VH-36/hu3G8VL-1 (antibody)
VH: QITLKESGPTLVKPTQTLTLTCTFSGFSLSTSGVGVGWIRQPPGKALEWLALIWWDDDKRYSPSLKSRLTISKDTSKNQVVLTMTNMDPVDTATYYCAQINPAYFDYWGQGTLVTVSS
light: DIVMTQSPDSLAVSLGERATINCKASQSVDFDGDSFMNWYQQKPGQPPKLLIYTTSNLESGVPDRFSGSGSGTDFTLTISSLQAEDVAVYYCQQSNEDPYTFGQGTKLEIKRTVAAPSVFIFPPSDEQLKSGTASVVCLLNNFYPREAKVQWKVDNALQSGNSQESVTEQDSKDSTYSLSSTLTLSKADYEKHKVYACEVTHQGLSSPVTKSFNRGEC
notes: as for B1
B7: hu3G8VH-34/hu3G8VL-1 (antibody)
VH: QITLKESGPTLVKPTQTLTLTCTFSGFSLSTSGVGVGWIRQPPGKALEWLAHIWWDDDKRYSPSLKSRLTISKDTSKNQVVLTMTNMDPVDTATYYCARINPAYFAYWGQGTLVTVSS
light: DIVMTQSPDSLAVSLGERATINCKASQSVDFDGDSFMNWYQQKPGQPPKLLIYTTSNLESGVPDRFSGSGSGTDFTLTISSLQAEDVAVYYCQQSNEDPYTFGQGTKLEIKRTVAAPSVFIFPPSDEQLKSGTASVVCLLNNFYPREAKVQWKVDNALQSGNSQESVTEQDSKDSTYSLSSTLTLSKADYEKHKVYACEVTHQGLSSPVTKSFNRGEC
notes: as for B1
B8: hu3G8VH-37/hu3G8VL-1 (antibody)
VH: QITLKESGPTLVKPTQTLTLTCTFSGFSLSTSGVGVGWIRQPPGKALEWLALIWWDDDKRYSPSLKSRLTISKDTSKNQVVLTMTNMDPVDTATYYCAKINPAYFAYWGQGTLVTVSS
light: DIVMTQSPDSLAVSLGERATINCKASQSVDFDGDSFMNWYQQKPGQPPKLLIYTTSNLESGVPDRFSGSGSGTDFTLTISSLQAEDVAVYYCQQSNEDPYTFGQGTKLEIKRTVAAPSVFIFPPSDEQLKSGTASVVCLLNNFYPREAKVQWKVDNALQSGNSQESVTEQDSKDSTYSLSSTLTLSKADYEKHKVYACEVTHQGLSSPVTKSFNRGEC
notes: as for B1
B9: hu3G8VH-42/hu3G8VL-1 (antibody)
VH: QITLKESGPTLVKPTQTLTLTCTFSGFSLSTSGVGVGWIRQPPGKALEWLAHIWWDDDKRYSPSLKSRLTITKDTSKNQVVLTMTNMDPVDTATYYCARINPAWFAYWGQGTLVTVSS
light: DIVMTQSPDSLAVSLGERATINCKASQSVDFDGDSFMNWYQQKPGQPPKLLIYTTSNLESGVPDRFSGSGSGTDFTLTISSLQAEDVAVYYCQQSNEDPYTFGQGTKLEIKRTVAAPSVFIFPPSDEQLKSGTASVVCLLNNFYPREAKVQWKVDNALQSGNSQESVTEQDSKDSTYSLSSTLTLSKADYEKHKVYACEVTHQGLSSPVTKSFNRGEC
notes: as for B1
B10: hu3G8VH-31/hu3G8VL-1 (antibody)
VH: QITLKESGPTLVKPTQTLTLTCTFSGFSLSTSGVGVGWIRQPPGKALEWLAHIWWDDDKRYSPSLKSRLTISKDTSKNQVVLTMTNMDPVDTATYYCARINPAWFAYWGQGTLVTVSS
light: DIVMTQSPDSLAVSLGERATINCKASQSVDFDGDSFMNWYQQKPGQPPKLLIYTTSNLESGVPDRFSGSGSGTDFTLTISSLQAEDVAVYYCQQSNEDPYTFGQGTKLEIKRTVAAPSVFIFPPSDEQLKSGTASVVCLLNNFYPREAKVQWKVDNALQSGNSQESVTEQDSKDSTYSLSSTLTLSKADYEKHKVYACEVTHQGLSSPVTKSFNRGEC
notes: as for B1
B11: hu3G8VH-40/hu3G8VL-1 (antibody)
VH: QITLKESGPTLVKPTQTLTLTCTFSGFSLSTSGVGVGWIRQPPGKALEWLAHIFWDDDKRYSPSLKSRLTISKDTSKNQVVLTMTNMDPVDTATYYCARINPAWFAYWGQGTLVTVSS
light: DIVMTQSPDSLAVSLGERATINCKASQSVDFDGDSFMNWYQQKPGQPPKLLIYTTSNLESGVPDRFSGSGSGTDFTLTISSLQAEDVAVYYCQQSNEDPYTFGQGTKLEIKRTVAAPSVFIFPPSDEQLKSGTASVVCLLNNFYPREAKVQWKVDNALQSGNSQESVTEQDSKDSTYSLSSTLTLSKADYEKHKVYACEVTHQGLSSPVTKSFNRGEC
notes: as for B1
B12: hu3G8VH-35/hu3G8VL-1 (antibody)
VH: QITLKESGPTLVKPTQTLTLTCTFSGFSLSTSGVGVGWIRQPPGKALEWLAHIWWDDDKRYSPSLKSRLTISKDTSKNQVVLTMTNMDPVDTATYYCAQINPAYFAYWGQGTLVTVSS
light: DIVMTQSPDSLAVSLGERATINCKASQSVDFDGDSFMNWYQQKPGQPPKLLIYTTSNLESGVPDRFSGSGSGTDFTLTISSLQAEDVAVYYCQQSNEDPYTFGQGTKLEIKRTVAAPSVFIFPPSDEQLKSGTASVVCLLNNFYPREAKVQWKVDNALQSGNSQESVTEQDSKDSTYSLSSTLTLSKADYEKHKVYACEVTHQGLSSPVTKSFNRGEC
notes: as for B1
B13: hu3G8VH-43/hu3G8VL-1 (antibody)
VH: QITLKESGPTLVKPTQTLTLTCTFSGFSLSTSGVGVGWIRQPPGKALEWLAHIWWDDDKRYSPSLKSRLTITKDTSKNQVVLTMTNMDPVDTATYYCARINPAYFAYWGQGTLVTVSS
light: DIVMTQSPDSLAVSLGERATINCKASQSVDFDGDSFMNWYQQKPGQPPKLLIYTTSNLESGVPDRFSGSGSGTDFTLTISSLQAEDVAVYYCQQSNEDPYTFGQGTKLEIKRTVAAPSVFIFPPSDEQLKSGTASVVCLLNNFYPREAKVQWKVDNALQSGNSQESVTEQDSKDSTYSLSSTLTLSKADYEKHKVYACEVTHQGLSSPVTKSFNRGEC
notes: as for B1
B14: hu3G8VH-29/hu3G8VL-1 (antibody)
VH: QVTLRESGPALVKPTQTLTLTCTFSGFSLSTSGVGVGWIRQPPGKALEWLAHIWWDDDKRYSPSLKSRLTISKDTSKNQVVLTMTNMDPVDTATYYCAHINPAYFDYWGQGTLVTVSS
light: DIVMTQSPDSLAVSLGERATINCKASQSVDFDGDSFMNWYQQKPGQPPKLLIYTTSNLESGVPDRFSGSGSGTDFTLTISSLQAEDVAVYYCQQSNEDPYTFGQGTKLEIKRTVAAPSVFIFPPSDEQLKSGTASVVCLLNNFYPREAKVQWKVDNALQSGNSQESVTEQDSKDSTYSLSSTLTLSKADYEKHKVYACEVTHQGLSSPVTKSFNRGEC
notes: as for B1
B15: hu3G8VH-26/hu3G8VL-1 (antibody)
VH: QVTLRESGPALVKPTQTLTLTCTFSGFSLSTSGVGVGWIRQPPGKALEWLAHIWWDDDKRYSPSLKSRLTISKDTSKNQVVLTMTNMDPVDTATYYCAQINPAYFAYWGQGTLVTVSS
light: DIVMTQSPDSLAVSLGERATINCKASQSVDFDGDSFMNWYQQKPGQPPKLLIYTTSNLESGVPDRFSGSGSGTDFTLTISSLQAEDVAVYYCQQSNEDPYTFGQGTKLEIKRTVAAPSVFIFPPSDEQLKSGTASVVCLLNNFYPREAKVQWKVDNALQSGNSQESVTEQDSKDSTYSLSSTLTLSKADYEKHKVYACEVTHQGLSSPVTKSFNRGEC
notes: as for B1

The experiment deals with T1, soluble human CD16A (sCD16A) (human, UniProt P08637 17-203).
T1 construct: CD16A truncated just prior to the transmembrane region, expressed in HEK-293; The last seven residues come from vector pCDNA3.1; also called soluble form of human CD16A
T1 sequence (P08637 other isoform, or with tags, fused parts or gaps limits assumed): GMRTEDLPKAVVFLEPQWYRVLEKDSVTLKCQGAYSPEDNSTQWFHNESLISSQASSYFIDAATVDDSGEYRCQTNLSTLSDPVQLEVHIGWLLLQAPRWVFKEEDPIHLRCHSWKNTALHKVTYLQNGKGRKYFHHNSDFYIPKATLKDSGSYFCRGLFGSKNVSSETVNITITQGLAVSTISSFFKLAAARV
Kind of experiment: ELISA, captured sCD16A. As to the method:
The plate was washed and dilutions of recombinant antibodies starting at 0.5 μg/ml in PBS-T-BSA were then added and incubated for 1 hr at room temp. Binding of recombinant antibodies to the captured sCD16A was then measured using an anti-human IgG-HRP conjugate and TMB substrate. After stopping color development using dilute sulfuric acid, the plate was read at 450 nm.
(ELISA stands for enzyme-linked immunosorbent assay.)
Turning to B1, the binding result is “binds”.

Consider B2, for which the binding result is “binds”.

For the molecule B3, the binding result is on record as “binds”.

With B4, the binding result is listed as “binds”.

Regarding B5, the binding result is “binds”.

With B6, the binding result is given as “binds”.

Turning to B7, the binding result is on record as “binds”.

Regarding B8, the binding result is given as “binds”.

As to B9, the binding result is “binds”.

For the molecule B10, the binding result is recorded as “binds”.

Consider B11, for which the binding result is “binds”.

Take B12: the binding result was “binds”.

Take B13: the binding result was “binds”.

As for B14, the binding result is on record as “binds”.

Regarding B15, the binding result was “binds”.
